{
  "source": "paper PMC8526623",
  "about": "“PHF3 regulates neuronal gene expression through the Pol II CTD reader domain SPOC” (Nature Communications, 2021)",
  "key": {"[1]": {"target": "2xpS2 CTD diheptapeptide, Atto-488 labeled", "assay": "fluorescence correlation spectroscopy (FCS); 15 nM Atto-488 labeled peptide with 40-0.2 µM SPOC, 20 °C; molar masses from diffusion times"}, "[2]": {"target": "2xpS2pS5 CTD diheptapeptide, Atto-488 labeled", "assay": "fluorescence correlation spectroscopy (FCS); 15 nM Atto-488 labeled peptide with 40-0.2 µM SPOC, 20 °C; molar masses from diffusion times"}, "[3]": {"target": "T1, 2xpS2pS5 CTD diheptapeptide, FAM-labeled", "T1 construct": "CTD diheptapeptide: two heptarepeats (Y1S2P3T4S5P6S7) of the C-terminal domain of RPB1, the largest Pol II subunit; source: synthetic peptide (Clonestar)", "T1 peptide": "{FAM}-Y[pS]PT[pS]PSY[pS]PT[pS]PS", "assay": "fluorescence polarisation; fluorescence anisotropy; 10 nM FAM-labeled CTD peptide titrated with SPOC protein; 20 °C, 25 mM Tris-Cl pH 8, 25 mM NaCl, 1 mM DTT; one site saturation with non-specific binding model"}, "[4]": {"target": "T2, 2xpS2 CTD diheptapeptide, FAM-labeled", "T2 construct": "CTD diheptapeptide: two heptarepeats (Y1S2P3T4S5P6S7) of the C-terminal domain of RPB1, the largest Pol II subunit; source: synthetic peptide (Clonestar)", "T2 peptide": "{FAM}-Y[pS]PTSPSY[pS]PTSPS", "assay": "fluorescence polarisation; fluorescence anisotropy; 10 nM FAM-labeled CTD peptide titrated with SPOC protein; 20 °C, 25 mM Tris-Cl pH 8, 25 mM NaCl, 1 mM DTT; one site saturation with non-specific binding model"}, "[5]": {"target": "T3, 2xpS2pS7 CTD diheptapeptide, FAM-labeled", "T3 construct": "CTD diheptapeptide: two heptarepeats (Y1S2P3T4S5P6S7) of the C-terminal domain of RPB1, the largest Pol II subunit; source: synthetic peptide (Clonestar)", "T3 peptide": "{FAM}-Y[pS]PTSP[pS]Y[pS]PTSP[pS]", "assay": "fluorescence polarisation; fluorescence anisotropy; 10 nM FAM-labeled CTD peptide titrated with SPOC protein; 20 °C, 25 mM Tris-Cl pH 8, 25 mM NaCl, 1 mM DTT; one site saturation with non-specific binding model"}, "[6]": {"target": "2xpS5 CTD diheptapeptide, FAM-labeled", "assay": "fluorescence polarisation; fluorescence anisotropy; 10 nM FAM-labeled CTD peptide titrated with SPOC protein; 20 °C, 25 mM Tris-Cl pH 8, 25 mM NaCl, 1 mM DTT; one site saturation with non-specific binding model"}, "[7]": {"target": "2xpS7 CTD diheptapeptide, FAM-labeled", "assay": "fluorescence polarisation; fluorescence anisotropy; 10 nM FAM-labeled CTD peptide titrated with SPOC protein; 20 °C, 25 mM Tris-Cl pH 8, 25 mM NaCl, 1 mM DTT; one site saturation with non-specific binding model"}, "[8]": {"target": "T4, PHF3 SPOC domain (1199-1356aa), bacterially expressed (human, UniProt Q92576 1199-1356)", "T4 chain": "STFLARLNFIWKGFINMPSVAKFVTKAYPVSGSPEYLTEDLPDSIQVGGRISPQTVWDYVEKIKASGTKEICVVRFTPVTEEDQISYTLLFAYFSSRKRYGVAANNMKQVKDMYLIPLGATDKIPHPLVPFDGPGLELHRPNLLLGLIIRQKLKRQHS", "assay": "FP; 100 mM NaCl"}, "PHF3 SPOC R1248A mutant": {"target": "T5, PHF3 SPOC R1248A mutant (human, UniProt Q92576 1199-1356, R1248A)", "T5 sequence": "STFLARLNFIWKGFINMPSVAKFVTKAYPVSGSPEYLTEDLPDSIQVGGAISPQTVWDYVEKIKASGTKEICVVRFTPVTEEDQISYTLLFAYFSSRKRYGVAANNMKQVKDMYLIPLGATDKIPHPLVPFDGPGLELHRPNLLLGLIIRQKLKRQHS", "assay": "FP; 25 mM NaCl"}},
  "note": "Square brackets hold non-standard residues; d marks the D form. Ends that are not written are not given here. pS = N[C@@H](COP(=O)(O)O)C(=O)O; FAM = 5,6-carboxyfluorescein",
  "data": [
    {"molecule": "PHF3 SPOC domain (1199-1356aa), bacterially expressed (from UniProt Q92576 1199-1356) (domain or fragment)", "values": [
      {"measurement": "stoichiometry N", "setting": "[1]", "value": 1},
      {"measurement": "stoichiometry N", "setting": "[2]", "value": 1},
      {"measurement": "Kd", "setting": "[3]", "value": 4.8, "unit": "µM"},
      {"measurement": "Kd", "setting": "[4]", "value": 1.6, "unit": "µM"},
      {"measurement": "Kd", "setting": "[5]", "value": 0.8, "unit": "µM"},
      {"measurement": "Kd", "setting": "[6]", "value": 20, "unit": "µM"},
      {"measurement": "Kd", "setting": "[7]", "value": 26, "unit": "µM"}
    ]},
    {"molecule": "{FAM}-Y[pS]PTSPSY[pS]PTSPS", "note": "[2xpS2 CTD diheptapeptide, FAM-labeled]", "values": [
      {"measurement": "Kd", "setting": "[8]", "value": 1.4, "unit": "µM"}
    ]},
    {"molecule": "{FAM}-Y[pS]PT[pS]PSY[pS]PT[pS]PS", "note": "[2xpS2pS5 CTD diheptapeptide, FAM-labeled]", "values": [
      {"measurement": "Kd", "setting": "PHF3 SPOC R1248A mutant", "value": 48.3, "unit": "µM"}
    ]},
    {"molecule": "{FAM}-YSPT[pS]PSYSPT[pS]PS", "note": "[2xpS5 CTD diheptapeptide, FAM-labeled]", "values": [
      {"measurement": "Kd", "setting": "PHF3 SPOC R1248A mutant", "value": 22.3, "unit": "µM"}
    ]},
    {"molecule": "PHF3 SPOC R1248A mutant (domain or fragment, human, UniProt Q92576 1199-1356, looked up, Expression, purification and tag cleavage are told only for SPOC in general; source: E. coli Rosetta2 (DE3), purified (told for SPOC); not shown: His6, N-terminal, cleaved) STFLARLNFIWKGFINMPSVAKFVTKAYPVSGSPEYLTEDLPDSIQVGGAISPQTVWDYVEKIKASGTKEICVVRFTPVTEEDQISYTLLFAYFSSRKRYGVAANNMKQVKDMYLIPLGATDKIPHPLVPFDGPGLELHRPNLLLGLIIRQKLKRQHS", "values": [
      {"measurement": "fold reduction of binding against PHF3 SPOC WT", "setting": "[3]; both partners purified", "value": "> 10", "unit": "fold"},
      {"measurement": "fold reduction of binding against PHF3 SPOC WT", "setting": "[4]; both partners purified", "value": "> 10", "unit": "fold"},
      {"measurement": "fold reduction of binding against PHF3 SPOC WT", "setting": "[5]; both partners purified", "value": "> 10", "unit": "fold"}
    ]}
  ]
}
